13 molecules from US20120034160A1 (AbbVie / Abbott, published 2012) can be followed below.

Substitutions are numbered along the chain they refer to. Values joined by “and” are separate entries in the source; they are usually repeats but may differ in a detail not shown here. Equal values may be shown once.

A word on the Kd: it is the concentration at which binding is half-saturated. For orientation: koff means a measure of how fast the partners let go of each other. The term kon denotes the rate constant with which the complex forms.

The target of assay [1] is T1, Recombinant Human IL-1β (human, UniProt P01584 117-269). The assay can be described thus: cell-based or functional assay.
Assay [2] has as its target T1, Recombinant Human IL-1β. The experiment in a line: Biacore SPR. As for the experimental part:
(§1) The BIACORE assay (Biacore, Inc, Piscataway, N.J.) determines the affinity of antibodies or DVD-Ig with kinetic measurements of on-rate and off-rate constants. Binding of antibodies or DVD-Ig to a target antigen (for example, a purified recombinant target antigen) was determined by surface plasmon resonance-based measurements with a Biacore® 1000 or 3000 instrument (Biacore® AB, Uppsala, Sweden) using running HBS-EP (10 mM HEPES [pH 7.4], 150 mM NaCl, 3 mM EDTA, and 0.005% surfactant P20) at 25° C. All chemicals were obtained from Biacore® AB (Uppsala, Sweden) or otherwise from a different source as described in the text. For example, approximately 5000 RU of goat anti-mouse IgG, (Fcγ), fragment specific polyclonal antibody (Pierce Biotechnology Inc, Rockford, Ill.) diluted in 10 mM sodium acetate (pH 4.5) was directly immobilized across a CM5 research grade biosensor chip using a standard amine coupling kit according to manufacturer's instructions and procedures at 25 μg/ml. Unreacted moieties on the biosensor surface were blocked with ethanolamine. Modified carboxymethyl dextran surface in flowcell 2 and 4 was used as a reaction surface. Unmodified carboxymethyl dextran without goat anti-mouse IgG in flow cell 1 and 3 was used as the reference surface. For kinetic analysis, rate equations derived from the 1:1 Langmuir binding model were fitted simultaneously to association and dissociation phases of all eight injections (using global fit analysis) with the use of Biaevaluation 4.0.1 software. Purified antibodies or DVD-Ig were diluted in HEPES-buffered saline for capture across goat anti-mouse IgG specific reaction surfaces. Antibodies or DVD-Ig to be captured as a ligand (25 μg/ml) were injected over reaction matrices at a flow rate of 5 μl/min. The association and dissociation rate constants, kₒₙ (M⁻¹s⁻¹) and koff (s⁻¹) were determined under a continuous flow rate of 25 μl/min. Rate constants were derived by making kinetic binding measurements at different antigen concentrations ranging from 10−200 nM. The equilibrium dissociation constant (M) of the reaction between antibodies or DVD-Igs and the target antigen was then calculated from the kinetic rate constants by the following formula: KD=koff/kₒₙ. Binding was recorded as a function of time and kinetic rate constants are calculated.
On the technique in general: SPR reads the build-up and loss of mass on a sensor chip optically.

Assay [3] has as its target T2, Recombinant Human IL-1β (human, UniProt P01584 117-269).
T2 construct: bought reagent; also called IL-1B
The assay can be described thus: Biacore SPR. The protocol: as §1

The target of assay [4] is T3, Recombinant Human IL-17 (human, UniProt Q16552 20-155, limits assumed).
T3 construct: Bought reagent
T3 sequence (looked up): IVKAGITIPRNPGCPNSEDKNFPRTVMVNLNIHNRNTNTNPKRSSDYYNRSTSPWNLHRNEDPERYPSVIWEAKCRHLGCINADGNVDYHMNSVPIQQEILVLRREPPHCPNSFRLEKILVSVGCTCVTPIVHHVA
The assay can be described thus: Biacore SPR; N-terminal VD. In short, it runs like this:
(§2)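 Rate constants fitted globally to a 1:1 Langmuir model from antigen series of 10−200 nM flowed at 25 μl/min over captured antibody or DVD-Ig (anti-mouse IgG Fcγ capture, ligand at 25 μg/ml).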

In assay [5] the target is T1, Recombinant Human IL-1β. The assay can be described thus: Biacore SPR; C-terminal VD. In short, it runs like this:
as §2

Assay [6] addresses T3, Recombinant Human IL-17. The experiment in a line: cell-based or functional assay.
Assay [7] has as its target T3, Recombinant Human IL-17. The assay can be described thus: Biacore SPR. As for the experimental part: as §1
Assay [8] concerns the target T4, Recombinant Human IL-17 (human, UniProt Q16552 20-155, limits assumed).
T4 construct: bought reagent
T4 sequence (looked up): T3 sequence (looked up)
The experiment in a line: Biacore SPR. As for the experimental part: as §1

B1: AB270 (antibody, human IgG1, kappa, V domains shown)
VH: EVQLQESGPGLVKPSETLSLTCTVSGFSLSDYGVSWIRQPPGKGLEWLGLIWGGGDTYYNSPLKSRLTISKDNSKSQVSLKLSSVTAADTAVYYCAKQRTLWGYDLYGMDYWGQGTLVTVSS
VL: DTQVTQSPSSLSASVGDRVTITCITSTDIDVDMNWYQQKPGKPPKLLISQGNTLRPGVPSRFSSSGSGTDFTFTISSLQPEDFATYYCLQSDNLPLTFGQGTKLEIKR
notes: Parent antibody
As to B1, the “IL-1β Neutralization Assay EC50” value with Recombinant Human IL-1β [1] came out at 0.245 nM. Besides, in the assay with Recombinant Human IL-1β [2], the Kd is 0.08 nM, the koff turned out to be 0.00053 s⁻¹ and the kon is 6.6e+06 M⁻¹ s⁻¹.

B2: AB272 (antibody, human IgG1, kappa, V domains shown)
VH: EVQLVESGGGLVQPGGSLRLSCAVSGFTLSDYGVSWIRQAPGKGLEWLGLIWGGGDTYYNSPLKSRLTISKDNSKSTVYLQMNSLRAEDTAVYYCAKQRTLWGYDLYGMDYWGQGTLVTVSS
VL: B1 VL with D1E, Q3T
notes: constants by vectors: V1 wt hIgG1, V2 kappa
Take B2: in the assay with Recombinant Human IL-1β [3], the Kd was 0.14 nM and 0.12 nM; the koff was 0.00053 s⁻¹ and 0.00066 s⁻¹ and 0.00056 s⁻¹; the kon is 3.9e+06 M⁻¹ s⁻¹ and 5.3e+06 M⁻¹ s⁻¹ and 4e+06 M⁻¹ s⁻¹.

B3: AB271 (antibody, human IgG1, kappa, V domains shown)
VH: B1 VH
VL: DTVVTQSPAFLSVTPGEKVTITCITSTDIDVDMNWYQQKPDQPPKLLISQGNTLRPGVPSRFSSSGSGTDFTFTISSLEAEDAATYYCLQSDNLPLTFGQGTKLEIKR
notes: Parent antibody
As for B3, the “IL-1β Neutralization Assay EC50” value with Recombinant Human IL-1β [1] worked out at 0.308 nM. Further, in the assay with Recombinant Human IL-1β [2], the dissociation constant Kd is 0.11 nM, the koff was 0.00051 s⁻¹ and the kon was 4.6e+06 M⁻¹ s⁻¹.

B4: AB271 (antibody, human IgG1, kappa, V domains shown)
VH: B1 VH
VL: B3 VL
notes: as for B2
As to B4, in the assay with Recombinant Human IL-1β [3], the Kd was 0.11 nM and 0.096 nM; the koff is 0.00055 s⁻¹ and 0.00057 s⁻¹ and 0.00051 s⁻¹; the kon was 5.1e+06 M⁻¹ s⁻¹ and 6e+06 M⁻¹ s⁻¹ and 4.6e+06 M⁻¹ s⁻¹.

B5: AB270 (antibody, human IgG1, kappa, V domains shown)
VH: B1 VH
VL: B1 VL
notes: as for B2
On to B5, for which, in the assay with Recombinant Human IL-1β [3], the Kd was 0.089 nM and 0.082 nM and 0.08 nM; the koff was 0.00058 s⁻¹ and 0.00055 s⁻¹ and 0.00053 s⁻¹; the kon is 6.5e+06 M⁻¹ s⁻¹ and 6.7e+06 M⁻¹ s⁻¹ and 6.6e+06 M⁻¹ s⁻¹.

B6: AB272 (antibody, human IgG1, kappa, V domains shown)
VH: B2 VH
VL: B1 VL with D1E, Q3T
notes: Parent antibody
With B6, in the assay with Recombinant Human IL-1β [1], the “IL-1β Neutralization Assay EC50” value is 0.298 nM. Besides, in the assay with Recombinant Human IL-1β [2], the Kd is 0.14 nM, the koff stood at 0.00056 s⁻¹ and the kon is 4e+06 M⁻¹ s⁻¹.

B7: DVD1646 (bispecific antibody, human IgG1, kappa)
heavy: not shown
light: EIVLTQSPDFQSVTPKEKVTITCRASQNIGSELHWYQQKPDQSPKLLIKYASHSISGVPSRFSGSGSGTDFTLTINGLEAEDAATYYCHQSDTLPHTFGQGTKVDIKRTVAAPDTVVTQSPAFLSVTPGEKVTITCITSTDIDVDMNWYQQKPDQPPKLLISQGNTLRPGVPSRFSSSGSGTDFTFTISSLEAEDAATYYCLQSDNLPLTFGQGTKLEIKRTVAAPSVFIFPPSDEQLKSGTASVVCLLNNFYPREAKVQWKVDNALQSGNSQESVTEQDSKDSTYSLSSTLTLSKADYEKHKVYACEVTHQGLSSPVTKSFNRGEC
notes: DVD-Ig: outer AB275, inner AB271; V1/V2 vectors: wild type hIgG1, kappa
Take B7: in the assay with Recombinant Human IL-17 [4], the Kd turned out to be 0.012 nM, the koff was determined as 4.7e-05 s⁻¹ and the kon came out at 3.9e+06 M⁻¹ s⁻¹. For the same molecule, in the assay with Recombinant Human IL-1β [5], the Kd was found to be 0.62 nM, the koff was 0.00063 s⁻¹ and the kon came out at 1e+06 M⁻¹ s⁻¹. The “C-Terminal VD IL-1β Neutralization Assay EC50” value with Recombinant Human IL-1β [1] was determined as 20.6 nM. Also, in the assay with Recombinant Human IL-17 [6], the “N-terminal VD IL-17 Neutralization Assay EC50” value was determined as 0.0082 nM.

B8: DVD1640 (bispecific antibody, human IgG1, kappa)
heavy: not shown
light: EIVLTQSPDFQSVTPKEKVTITCRASQNIGSELHWYQQKPDQSPKLLIKYASHSISGVPSRFSGSGSGTDFTLTINGLEAEDAATYYCHQSDTLPHTFGQGTKVDIKRTVAAPDIQMTQSPSSLSASVGDRVTITCRASGNIHNYLTWYQQTPGKAPKLLIYNAKTLADGVPSRFSGSGSGTDYTFTISSLQPEDIATYYCQHFWSIPYTFGQGTKLQITRTVAAPSVFIFPPSDEQLKSGTASVVCLLNNFYPREAKVQWKVDNALQSGNSQESVTEQDSKDSTYSLSSTLTLSKADYEKHKVYACEVTHQGLSSPVTKSFNRGEC
notes: V1/V2 vectors: wild type hIgG1, kappa
Take B8: in the assay with Recombinant Human IL-17 [4], the Kd is 0.017 nM, the koff is 6.5e-05 s⁻¹ and the kon is 3.8e+06 M⁻¹ s⁻¹. In the assay with Recombinant Human IL-1β [5], the Kd is 0.09 nM, the off-rate (koff) stood at 1.2e-05 s⁻¹ and the kon amounted to 130000 M⁻¹ s⁻¹. The “C-Terminal VD IL-1β Neutralization Assay EC50” value with Recombinant Human IL-1β [1] stood at 2.85 nM. Besides, the “N-terminal VD IL-17 Neutralization Assay EC50” value in the assay with Recombinant Human IL-17 [6] came out at 0.0061 nM.

B9: DVD1642 (bispecific antibody, human IgG1, kappa)
heavy: not shown
light: B8 light
notes: as for B8
Consider B9, for which, in the assay with Recombinant Human IL-17 [4], the Kd was determined as 0.011 nM, the koff was 4.1e-05 s⁻¹ and the on-rate constant (kon) was determined as 3.9e+06 M⁻¹ s⁻¹. For the same molecule, in the assay with Recombinant Human IL-1β [5], the Kd is under 0.001 nM, the koff is under 1e-06 s⁻¹ and the kon was 960000 M⁻¹ s⁻¹. Besides, the “C-Terminal VD IL-1β Neutralization Assay EC50” value with Recombinant Human IL-1β [1] stood at 0.628 nM. Moreover, the “N-terminal VD IL-17 Neutralization Assay EC50” value with Recombinant Human IL-17 [6] came to 0.0043 nM.

B10: AB274 (antibody, human IgG1, kappa, V domains shown)
VH: EVQLVQSGAEVKKPGSSVKVSCKASGGSFGGYGIGWVRQAPGQGLEWMGGITPFFGFADYAQKFQGRVTITADESTTTAYMELSGLTSDDTAVYYCARDPNEFWNGYYSTHDFDSWGQGTTVTVSS
VL: EIVLTQSPDFQSVTPKEKVTITCRASQDIGSELHWYQQKPDQPPKLLIKYASHSTSGVPSRFSGSGSGTDFTLTINGLEAEDAGTYYCHQTDSLPYTFGPGTKVDIKR
notes: Parent antibody
With B10, in the assay with Recombinant Human IL-17 [7], the Kd is 0.0068 nM, the koff came to 1.8e-05 s⁻¹ and the kon was found to be 2.7e+06 M⁻¹ s⁻¹. Also, the “IL-17 Neutralization Assay EC50” value with Recombinant Human IL-17 [6] worked out at 0.002 nM.

B11: AB274 (antibody, human IgG1, kappa, V domains shown)
VH: B10 VH
VL: B10 VL
notes: as for B2
B11: the koff with Recombinant Human IL-17 [8] was 2e-05 s⁻¹ and 2.1e-05 s⁻¹ and 1.8e-05 s⁻¹.

B12: DVD1648 (bispecific antibody, human IgG1, kappa)
heavy: not shown
light: EIVLTQSPDFQSVTPKEKVTITCRASQNIGSELHWYQQKPDQSPKLLIKYASHSISGVPSRFSGSGSGTDFTLTINGLEAEDAATYYCHQSDTLPHTFGQGTKVDIKRTVAAPETTVTQSPSSLSASVGDRVTITCITSTDIDVDMNWYQQKPGKPPKLLISQGNTLRPGVPSRFSSSGSGTDFTFTISSLQPEDFATYYCLQSDNLPLTFGQGTKLEIKRTVAAPSVFIFPPSDEQLKSGTASVVCLLNNFYPREAKVQWKVDNALQSGNSQESVTEQDSKDSTYSLSSTLTLSKADYEKHKVYACEVTHQGLSSPVTKSFNRGEC
notes: DVD-Ig: outer AB275, inner AB272; V1/V2 vectors: wild type hIgG1, kappa
Regarding B12, in the assay with Recombinant Human IL-17 [4], the Kd is 0.02 nM, the koff is 6.2e-05 s⁻¹ and the kon was found to be 3.1e+06 M⁻¹ s⁻¹. In the assay with Recombinant Human IL-1β [5], the Kd stood at 0.56 nM, the koff came to 0.00075 s⁻¹ and the kon was 1.3e+06 M⁻¹ s⁻¹. Also, in the assay with Recombinant Human IL-1β [1], the “C-Terminal VD IL-1β Neutralization Assay EC50” value came out at 16.2 nM. For the same molecule, the “N-terminal VD IL-17 Neutralization Assay EC50” value with Recombinant Human IL-17 [6] is 0.0089 nM.

B13: AB273 (antibody, human IgG1, kappa, V domains shown)
VH: EVQLVQSGAEVKKPGSSVKVSCKASGYTFTDYEIHWVRQAPGQGLEWMGVNDPESGGTFYNQKFDGRVTLTADESTSTAYMELSSLRSEDTAVYYCTRYSKWDSFDGMDYWGQGTTVTVSS
VL: DIQMTQSPSSLSASVGDRVTITCRASSGIISYIDWFQQKPGKAPKRLIYATFDLASGVPSRFSGSGSGTDYTLTISSLQPEDFATYYCRQVGSYPETFGQGTKLEIKR
notes: as for B2
Take B13: the koff with Recombinant Human IL-17 [8] is ≤ 1e-05 s⁻¹ and 1.2e-05 s⁻¹ and 1.3e-05 s⁻¹.
